Measurements reported in patent US20220098287A1.

Assays:
[1] = molecular target: human α-CGRP P29A (25-37) (human); assay: SPR (Biacore), 25 °C, Fab over peptide on SA chip; KD of mutant over KD of parent 25-37
[2] = molecular target: human α-CGRP V32A (25-37) (human); assay: as above
[3] = molecular target: human α-CGRP F37A (25-37) (human); assay: as above
[4] = molecular target: human α-CGRP G33A (25-37) (human); assay: as above
[5] = molecular target: human α-CGRP T30A (25-37) (human); assay: as above
[6] = molecular target: human α-CGRP N31A (25-37) (human); assay: as above
[7] = molecular target: human α-CGRP S34A (25-37) (human); assay: as above
[8] = molecular target: human α-CGRP K35A (19-37) (human); assay: SPR (Biacore), 25 °C, Fab over peptide on SA chip; KD of mutant over KD of parent 19-37

KD (mutant/parent) [1]: 26 | KD (mutant/parent) [2]: 41 | KD (mutant/parent) [3]: 3600 | KD (mutant/parent) [4]: 1260 | KD (mutant/parent) [5]: 7 | KD (mutant/parent) [6]: 9 | KD (mutant/parent) [7]: 69 | KD (mutant/parent) [8]: 4
Substance: murine anti-CGRP monoclonal antibody 7E9, Fab fragment
